Test results as given in the supplement of paper PMC7877785.
± gives the uncertainty stated by the source.

Test: self-splicing fitness, log relative to wild type (ln ratio); higher = more splicing; Tetrahymena group I intron in knt gene, E. coli kanamycin selection, DiMSum; sequences stand for … in CUCUCU…GGAGGGAAAAGUUAUCAGGCAUGCACCUGGUAGCUAGUCUUUAAACCAAUAGAUUGCAUCGGUUUAAAAGGCAAGACCGUCAAAUUGCGGGAAAGGGGUCAACAGCCGUUCAGUACCAAGUCUCAGGGGAAACUUUGAGAUGGCCUUGCAAAGGGUAUGGUAAUAAGCUGACGGACAUGGUCCUAACCACGCAGCCAAGUCCUAAGUCAACAGAUCUUCUGUUGAUAUGGAUGCAGUUCACAGACUAAAUGUCGGUCGGGGAAGAUGUAUUCUUCUCAUAAGAUAUAGUCGGACCUCUCCUUAAUGGGAGCUAGCGGAUGAAGUGAUGCAACACUGGAGCCGCUGGGAACUAAUUUGUAUGCGAAAGUAUAUUGAUUAGUUUUGGAGUACUCGUGGUCG
In short: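 A randomised library covering all eight P1ex-region intron nucleotides was built with the intron in the knt kanamycin-resistance gene on pET-22b(+) and held in E. coli BL21(DE3). Cells were grown overnight at 37°C or 30°C on LB agar, with or without 25 μg/mL kanamycin, plus 100 μg/mL carbenicillin, 50 μM IPTG and 0.2% rhamnose, and pooled colonies were amplicon-sequenced on an Illumina HiSeq 2500. DiMSum fitness is the error-weighted combination of wild-type-normalised replicate fold changes, kanamycin versus none.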

Sequence	self-splicing fitness (ln) (30 °C)	self-splicing fitness (ln) (37 °C)
UGUUAGCAAUAUUACGCACU	-0.724 ± 0.1	-0.553 ± 0.12
UGUUAGCAAUAUUACGCGAU	-3.44 ± 0.47	-1.9 ± 0.4
UGUUAGCAAUAUUACGCGCC	-1.13 ± 0.14	-0.207 ± 0.24
UGUUAGCAAUAUUACGCGGC		-3.46 ± 0.29
UGUUAGCAAUAUUACGCUGU	-2.07 ± 0.23	-0.914 ± 0.2
UGUUAGCAAUAUUACGCUUA	-1.73 ± 0.18	-0.323 ± 0.21
UGUUAGCAAUAUUACGGAAG	-3.18 ± 0.3	-1.37 ± 0.17
UGUUAGCAAUAUUACGGACG	-0.811 ± 0.15	-0.257 ± 0.17
UGUUAGCAAUAUUACGGCGG	-0.72 ± 0.09	-0.356 ± 0.1
UGUUAGCAAUAUUACGGGAU	-1.94 ± 0.23	
UGUUAGCAAUAUUACGGGGC	-3.37 ± 0.34	-3.32 ± 0.46
UGUUAGCAAUAUUACGGGUC	-2.97 ± 0.44	-1.53 ± 0.3
UGUUAGCAAUAUUACGGUCU	-1.33 ± 0.09	-0.963 ± 0.1
UGUUAGCAAUAUUACGUAUA	-1.7 ± 0.12	-0.458 ± 0.11
UGUUAGCAAUAUUACGUAUG	-0.871 ± 0.13	-0.234 ± 0.17
UGUUAGCAAUAUUACGUCAA	-1.27 ± 0.12	-1.2 ± 0.11
UGUUAGCAAUAUUACGUUCA	0.071 ± 0.12	-0.114 ± 0.14
UUAAAGCAAUAUUACGAAUC	-3.58 ± 0.26	-1.79 ± 0.16
UUAAAGCAAUAUUACGACAC	-1.54 ± 0.18	-0.0824 ± 0.22
UUAAAGCAAUAUUACGAGCA	-0.0954 ± 0.082	0.177 ± 0.11
UUAAAGCAAUAUUACGAGUA	-1.08 ± 0.096	-0.715 ± 0.11
UUAAAGCAAUAUUACGAUAC	-1.57 ± 0.13	-0.384 ± 0.16

Sequence	self-splicing fitness (ln) (30 °C)	self-splicing fitness (ln) (37 °C)
UUAAAGCAAUAUUACGAUUC	-1.07 ± 0.1	-0.514 ± 0.11
UUAAAGCAAUAUUACGCAAC	-3.92 ± 0.25	-1.75 ± 0.14
UUAAAGCAAUAUUACGCACA	0.245 ± 0.098	-0.401 ± 0.12
UUAAAGCAAUAUUACGCUAA	-0.626 ± 0.1	-0.111 ± 0.12
UUAAAGCAAUAUUACGCUAG	-0.313 ± 0.092	0.141 ± 0.11
UUAAAGCAAUAUUACGCUCU	-0.795 ± 0.15	0.21 ± 0.14
UUAAAGCAAUAUUACGCUUU	-4.36 ± 0.35	-1.94 ± 0.24
UUAAAGCAAUAUUACGGCCC	-1.67 ± 0.17	0.305 ± 0.23
UUAAAGCAAUAUUACGGCUC	-0.0999 ± 0.18	0.714 ± 0.23
UUAAAGCAAUAUUACGGGCA	-0.351 ± 0.12	0.329 ± 0.16
UUAAAGCAAUAUUACGGUCC		-1.2 ± 0.36
UUAAAGCAAUAUUACGGUCU	-0.805 ± 0.074	-0.3 ± 0.098
UUAAAGCAAUAUUACGUAAC	-2.67 ± 0.17	-1.62 ± 0.2
UUAAAGCAAUAUUACGUCAU	-1.94 ± 0.18	-0.671 ± 0.17
UUAAAGCAAUAUUACGUCGG	-0.114 ± 0.074	0.43 ± 0.091
UUAAAGCAAUAUUACGUCGU	-1.76 ± 0.11	-0.737 ± 0.12
UUAAAGCAAUAUUACGUGCA	-0.0172 ± 0.1	0.542 ± 0.13
UUAAAGCAAUAUUACGUGGU	-3.26 ± 0.12	-2.73 ± 0.15
UUAAAGCAAUAUUACGUGUA	-0.993 ± 0.066	0.0738 ± 0.08
UUAAAGCAAUAUUACGUUUC	-3.92 ± 0.39	-1.18 ± 0.31
UUACAGCAAUAUUACGAACG	-0.834 ± 0.1	-0.112 ± 0.13
